Test results taken from publication PMC11982978, “Cancer hotspot mutations rewire ERK2 specificity by selective exclusion of docking interactions” (The Journal of Biological Chemistry, 2025).
Like-named read-outs stand apart in the source and are kept apart here.

Tests used:
[1] = target: Active phosphorylated His6-tagged ERK2 D319N (rat (p-0033 says mouse)) (UniProt P63086)
[2] = target: Active phosphorylated His6-tagged ERK2 E320K (rat (p-0033 says mouse)) (UniProt P63086)
[3] = target: Active phosphorylated His6-tagged ERK2 R133K (rat (p-0033 says mouse)) (UniProt P63086)
[4] = target: Active phosphorylated His6-tagged ERK2 WT (rat (p-0033 says mouse)) (UniProt P63086)
[5] = target: Active phosphorylated His6-tagged ERK2 WT (rat (p-0033 says mouse)) (UniProt P63086); remark: listed apart in the source
[6] = target: Active phosphorylated His6-tagged ERK2 R133K (rat (p-0033 says mouse)) (UniProt P63086); remark: listed apart in the source
[7] = target: Active phosphorylated His6-tagged ERK2 WT (rat (p-0033 says mouse)) (UniProt P63086); remark: listed apart in the source
[8] = target: Active phosphorylated His6-tagged ERK2 E320K (rat (p-0033 says mouse)) (UniProt P63086); remark: listed apart in the source
[9] = target: Active phosphorylated His6-tagged ERK2 R133K (rat (p-0033 says mouse)) (UniProt P63086); remark: listed apart in the source
[10] = target: Active phosphorylated His6-tagged ERK2 D319N (rat (p-0033 says mouse)) (UniProt P63086); remark: listed apart in the source
[11] = target: Active phosphorylated His6-tagged ERK2 WT (rat (p-0033 says mouse)) (UniProt P63086); remark: listed apart in the source
[12] = target: Active phosphorylated His6-tagged ERK2 E320K (rat (p-0033 says mouse)) (UniProt P63086); remark: listed apart in the source
[13] = target: Active phosphorylated His6-tagged ERK2 D319N (rat (p-0033 says mouse)) (UniProt P63086); remark: listed apart in the source
[14] = target: Active phosphorylated His6-tagged ERK2 R133K (rat (p-0033 says mouse)) (UniProt P63086); remark: listed apart in the source
[15] = target: Active phosphorylated His6-tagged ERK2 D319N (rat (p-0033 says mouse)) (UniProt P63086); remark: listed apart in the source
[16] = target: Active phosphorylated His6-tagged ERK2 WT (rat (p-0033 says mouse)) (UniProt P63086); remark: listed apart in the source
[17] = target: Active phosphorylated His6-tagged ERK2 R133K (rat (p-0033 says mouse)) (UniProt P63086); remark: listed apart in the source
[18] = target: Active phosphorylated His6-tagged ERK2 E320K (rat (p-0033 says mouse)) (UniProt P63086); remark: listed apart in the source
[19] = target: Active phosphorylated His6-tagged ERK2 D319N (rat (p-0033 says mouse)) (UniProt P63086); remark: listed apart in the source
[20] = target: Active phosphorylated His6-tagged ERK2 E320K (rat (p-0033 says mouse)) (UniProt P63086); remark: listed apart in the source
[21] = target: Active phosphorylated His6-tagged ERK2 R133K (rat (p-0033 says mouse)) (UniProt P63086); remark: listed apart in the source
[22] = target: Active phosphorylated His6-tagged ERK2 WT (rat (p-0033 says mouse)) (UniProt P63086); remark: listed apart in the source
[23] = target: Active phosphorylated His6-tagged ERK2 WT (rat (p-0033 says mouse)) (UniProt P63086); remark: listed apart in the source
[24] = target: Active phosphorylated His6-tagged ERK2 R133K (rat (p-0033 says mouse)) (UniProt P63086); remark: listed apart in the source
[25] = target: Active phosphorylated His6-tagged ERK2 D319N (rat (p-0033 says mouse)) (UniProt P63086); remark: listed apart in the source
[26] = target: Active phosphorylated His6-tagged ERK2 E320K (rat (p-0033 says mouse)) (UniProt P63086); remark: listed apart in the source

An IC50 [1] of 120 µM, an IC50 [2] of 160 µM and an IC50 [3] of 110 µM were found for AEBP1 in this work. For the same substance, the IC50 [4] was 16 µM.
An IC50 [5] of 32 µM and an IC50 [6] of 340 µM were found for ANAPC5 in this work.
An IC50 [7] of 5.1 µM, an IC50 [8] of 14 µM and an IC50 [9] of 5.7 µM were found for CBX7 in this work. It also gave an IC50 [10] of 9.8 µM.
An IC50 [11] of 23 µM, an IC50 [12] of 110 µM and an IC50 [13] of 79 µM were found for DISC1 in this work. For the same substance, the IC50 [14] was 74 µM.
An IC50 [15] of 30 µM, an IC50 [16] of 24 µM and an IC50 [17] of 27 µM were found for ELMSAN1 in this work. For the same substance, the IC50 [18] was 40 µM.
An IC50 [19] of 26 µM, an IC50 [20] of 28 µM and an IC50 [21] of 23 µM were found for MLXIPL in this work. It also gave an IC50 [22] of 18 µM.
An IC50 [23] of 6.8 µM, an IC50 [24] of 6.2 µM and an IC50 [25] of 23 µM were found for ZBED6 in this work. The IC50 [26] was 56 µM.
